According to paper PMC3032553, “Structural Basis for c-di-GMP-Mediated Inside-Out Signaling Controlling Periplasmic Proteolysis” (PLoS Biology, 2011):

How the values were obtained:
[1] = molecular target: the molecule itself; assay: SEC-MALS; protein incubated with 500 µM c-di-GMP for 30 min at room temperature before SEC, no c-di-GMP in the mobile phase; 20-320 µM injected protein; 25 mM Tris-HCl pH 8.4, 250 mM NaCl; 25°C
[2] = molecular target: the molecule itself; assay: AUC; sedimentation equilibrium, no c-di-GMP; 1x, 2x, 4x dilutions of ~12 µM protein; 25 mM Tris pH 7.5, 150 mM NaCl; 20°C; 10,000, 14,000 and 20,000 rpm, global fit; monomer:dimer equilibrium
[3] = molecular target: the molecule itself; assay: AUC; sedimentation equilibrium with 20 µM c-di-GMP; 1x, 2x, 4x dilutions of ~12 µM protein; 25 mM Tris pH 7.5, 150 mM NaCl; 20°C; global fit with dinucleotide binding and dimerization of the c-di-GMP-bound form; monomer:dimer equilibrium

B1: LapD^dual E262A (domain or fragment, P. fluorescens Pf0-1, UniProt Q3KK31 220-648, looked up)
chain: ALFQEQAERSEKLRTESYQDNLTGLANRRYFEMQLNARVSNPAQASSGYLLLLRVKDLAGLNQRLGGQRTDELLKAVGEQLSRECAKYPETQNLVTRIRGGEFAVLAPGMTREEALQLAQSLDSALSSLYATGATDVAAVASIGLAPFAHGDSPQAVLSLGDQALAQAEGQGEQNWACLDQSLVADVGDDHHAWHRLLDQALNQRRFELFFQPVVAAQDTQLVLHYKVLSRLLDEQGQTIPAGRFLPWLERFGWTARLDRLMLERVLEQMAGHEESLALNLSSATLADPQALNKVFEILRAHSNLGARLTLEIGEEQLPEQAVLEQLTRRLRELGFSLSLQRFGGRFSMIGNLARLGLAYLKIDGSYIRAIDQESDKRLFIEAIQRAAHSIDLPLIAERVETEGELSVIREMGLYGVQGQLFGEPKPWG
notes: LapD, P. fluorescens Pf0-1, residues 220-648, mutation E262A in the GGDEF domain; also called GGDEF-EAL interface mutant; source: produced following standard molecular biology and liquid chromatography techniques, purified (protocols in Text S1)
binding result [1]: binds

B2: LapD^dual, wild-type (dual GGDEF-EAL domain module of LapD, residues 220-648) (domain or fragment, P. fluorescens Pf0-1, UniProt Q3KK31 220-648, looked up)
chain: ALFQEQAERSEKLRTESYQDNLTGLANRRYFEMQLNARVSNPEQASSGYLLLLRVKDLAGLNQRLGGQRTDELLKAVGEQLSRECAKYPETQNLVTRIRGGEFAVLAPGMTREEALQLAQSLDSALSSLYATGATDVAAVASIGLAPFAHGDSPQAVLSLGDQALAQAEGQGEQNWACLDQSLVADVGDDHHAWHRLLDQALNQRRFELFFQPVVAAQDTQLVLHYKVLSRLLDEQGQTIPAGRFLPWLERFGWTARLDRLMLERVLEQMAGHEESLALNLSSATLADPQALNKVFEILRAHSNLGARLTLEIGEEQLPEQAVLEQLTRRLRELGFSLSLQRFGGRFSMIGNLARLGLAYLKIDGSYIRAIDQESDKRLFIEAIQRAAHSIDLPLIAERVETEGELSVIREMGLYGVQGQLFGEPKPWG
notes: LapD, P. fluorescens Pf0-1, residues 220-648 (S helix, degenerate GGDEF and EAL domains); also called apo-LapD^dual; intracellular module of LapD; source: produced following standard molecular biology and liquid chromatography techniques, purified (protocols in Text S1)
Kd [2]: 400 µM | Kd [3]: 0.67 µM

B3: LapD^EAL, wild-type (EAL domain of LapD, residues 399-648) (domain or fragment, P. fluorescens Pf0-1, UniProt Q3KK31 399-648, looked up)
chain: DQSLVADVGDDHHAWHRLLDQALNQRRFELFFQPVVAAQDTQLVLHYKVLSRLLDEQGQTIPAGRFLPWLERFGWTARLDRLMLERVLEQMAGHEESLALNLSSATLADPQALNKVFEILRAHSNLGARLTLEIGEEQLPEQAVLEQLTRRLRELGFSLSLQRFGGRFSMIGNLARLGLAYLKIDGSYIRAIDQESDKRLFIEAIQRAAHSIDLPLIAERVETEGELSVIREMGLYGVQGQLFGEPKPWG
notes: LapD, P. fluorescens Pf0-1, residues 399-648 (degenerate EAL domain); also called isolated EAL domain; LapD^EAL•c-di-GMP; source: produced following standard molecular biology and liquid chromatography techniques, purified (protocols in Text S1)
binding result [1]: binds
